# Literature values as cited in patent US6964771B1, “Method for stably incorporating substances within dry, foamed glass matrices” (Elan Drug Delivery Limited, priority 1995, dated 2005).
# B1: Neupogen®: biopharmaceutical delivered at a dosage of 300 μg (protein, chains of the INN, looked up)
# chain: MTPLGPASSLPQSFLLKCLEQVRKIQGDGAALQEKLCATYKLCHPEELVLLGHSLGIPWAPLSSCPSQALQLAGCLSQLHSGLFLYQGLLQALEGISPELGPTLDTLQLDVADFATTIWQQMEELGMAPALQPTQGAMPAFASAFQRRAGGVLVASHLQSFLEVSYRVLRHLAQP
# Settings: as delivered, dosage of 300 μg
molecule,measurement,value
B1,specific activity,1±0.6×10^8 U/mg
